B2: recombinant human type II IL-1R:Fc (Fc fusion)
chain: FTLQPAAHTGAARSCRFRGRHYKREFRLEGEPVALRCPQVPYWLWASVSPRINLTWHKNDSARTVPGEEETRMWAQDGALWLLPALQEDSGTYVCTTRNASYCDKMSIELRVFENTDAFLPFISYPQILTLSTSGVLVCPDLSEFTRDKTDVKIQWYKDSLLLDKDNEKFLSVRGTTHLLVHDVALEDAGYYRCVLTFAHEGQQYNITRSIELRIKKKKEETIPVIISPLKTISASLGSRLTIPCKVFLGTGTPLTTMLWWTANDTHIESAYPGGRVTEGPRQEYSENNENYIEVPLIFDPVTREDLHMDFKCVVHNTLSFQTLRTTVKE
notes: also called human IL-1RII:Fc; soluble recombinant human type II IL 1R:Fc; not shown: Fc portion of human IgG
B4: human IL-1α (ligand, UniProt P01583 113-271, looked up)
chain: SAPFSFLSNVKYNFMRIIKYEFILNDALNQSIIRANDQYLTAAALHNLDEAVKFDMGAYKSSKDDAKITVILRISKTQLYVTAQDEDQPVLLKEMPEIPKTITGSETNLLFFWETHGTKNYFTSVAHPNLFIATKQDYWVCLAGGPPSITDFQILENQA
notes: also called IL-1 alpha

Legend:
[1] = molecular target: cynomolgus IL-1β (cynomolgus macaque) (UniProt P79182); assay: SPR, BIACORE 3000, both Fc fusions captured, ligand in flow
Chain of cynomolgus IL-1β (cynomolgus macaque) (P79182 117-268 limits assumed): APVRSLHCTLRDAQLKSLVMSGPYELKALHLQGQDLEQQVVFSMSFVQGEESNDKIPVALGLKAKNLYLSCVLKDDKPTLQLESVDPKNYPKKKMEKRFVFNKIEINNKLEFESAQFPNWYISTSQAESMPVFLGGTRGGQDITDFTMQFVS

[2] = molecular target: recombinant rhesus IL-1β (rhesus) (UniProt P48090); assay: cell-based or functional assay
Chain of recombinant rhesus IL-1β (rhesus) (P48090 117-269 limits assumed): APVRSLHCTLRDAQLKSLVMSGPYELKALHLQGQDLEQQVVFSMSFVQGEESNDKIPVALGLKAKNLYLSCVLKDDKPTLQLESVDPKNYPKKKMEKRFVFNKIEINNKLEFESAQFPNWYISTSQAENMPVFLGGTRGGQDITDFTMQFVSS

[3] = molecular target: recombinant rhesus IL-1α (rhesus) (UniProt P48089); assay: cell-based or functional assay
[4] = molecular target: B2; assay: SPR, BIACORE 3000, receptor:Fc captured, ligand in flow, without cynomolgus IL-1AcP
human IL-1α = molecular target: B4; assay: SPR, BIACORE 3000, receptor:Fc captured on anti-human IgG Fc, ligand in flow, 25 C, without IL-1AcP
Method: (§1) The relative ability of purified soluble type II IL-1R to bind IL-1α, IL-1β and IL-1ra was measured using a BIACORE 3000 instrument with a research grade CM5 sensor chip at 25 degrees C. Soluble recombinant human type II IL-1R was fused to the Fc portion of human IgG so that the resulting type II IL-1R:Fc construct could be bound to a goat anti-human IgG, Fc chain-specific antibody immobilized to the chip using standard amine coupling chemistry. A similar construct was made using IL-1AcP for the same reason. When IL-1AcP:Fc was used in combination with type II IL-1R:Fc, it was mixed in a 1:1 molar ratio before injection into the BIACORE 3000. Kinetic data were obtained by running a range of concentrations of IL-1α, IL-1β, and IL-1 ra over a flow cell that contained receptor bound to immobilized antibody, and a reference cell of immobilized antibody alone. […] In the presence of human IL-1AcP:Fc, the apparent equilibrium binding constants of human type II IL-1R:Fc for human IL-1α and IL-1β were increased >100-fold over those measured in the absence of human IL-1AcP. Human IL-1AcP:Fc slowed the dissociation rates of both ligands by 100-fold. In contrast, human IL-1AcP:Fc had little effect on the affinity of human IL-1RII:Fc for human IL-1ra. In the absence of receptor, no binding of human IL-1α, IL-1β, and IL-1ra to human IL-1AcP:Fc was detected.

[5] = molecular target: T1, recombinant human IL-1 receptor Accessory Protein (AcP):Fc (human, UniProt Q9NPH3 21-359); assay: SPR, BIACORE 3000, Fc fusion captured on anti-human IgG Fc, ligand in flow
T1 construct: also called human IL-1AcP:Fc; soluble recombinant human IL-1AcP:Fc
T1 sequence: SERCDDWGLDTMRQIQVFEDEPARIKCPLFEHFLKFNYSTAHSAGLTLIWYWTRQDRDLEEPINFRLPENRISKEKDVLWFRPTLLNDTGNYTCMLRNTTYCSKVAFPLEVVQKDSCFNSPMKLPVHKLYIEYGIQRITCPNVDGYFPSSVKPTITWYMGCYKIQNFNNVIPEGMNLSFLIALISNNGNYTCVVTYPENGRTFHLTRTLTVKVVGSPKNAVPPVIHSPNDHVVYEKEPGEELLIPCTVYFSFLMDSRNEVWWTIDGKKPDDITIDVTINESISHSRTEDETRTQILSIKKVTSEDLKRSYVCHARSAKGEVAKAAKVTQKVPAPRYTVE
Method: as §1

Q: Which results are given for “human type II IL-1R:Fc in the presence of cynomolgus IL-1AcP:Fc (from UniProt A0A7N9CMI5 18-336)”?
A: Ka [1]: 1.8e+08 M⁻¹; fold increase of apparent affinity over that without IL-1AcP [1]: > 100 fold

Q: Which results are given for “soluble IL-1R Type II in the presence of IL-1RAcP (from UniProt P27930 14-343; Q9NPH3 21-367)”?
A: NF-κB luciferase reporter activity in COS7 cells [2]: 25 fold; NF-κB luciferase reporter activity in COS7 cells [3]: 25 times

B1: cynomolgus IL-1ra (ligand, cynomolgus macaque, UniProt Q866R8 26-177, looked up)
chain: RPSGRKPSKMQAFRIWDVNQKTFYLRNNQLVAGYLQGPNVNLEEKIDVVPIEPHALFLGIHGGKMCLSCVKSGDETRLQLEAVNITDLSKNRKQDKRFAFVRSDSGPTTSFESAACPGWFLCTAMEADQPVSLTNMPDKGVMVTKFYFQEDE
notes: also called cynomolgus macaque IL-1 receptor antagonist
Q: How did the Ka [4] turn out when B1 was run?
A: Its Ka is 6.2e+07 M⁻¹.

Q: How did the “fold lower affinity than for human IL-1β” value (human IL-1α) turn out when B2 was run?
A: Its value is 100 fold.

B3: cynomolgus IL-1α (ligand, cynomolgus macaque, UniProt P79340 113-271, looked up)
chain: SAPFSFLSNMTYHFIRIIKHEFILNDTLNQTIIRANDQYLTAAAIHNLDEAVKFDMGAYTSSKDDTKVPVILRISKTQLYVSAQDEDQPVLLKEMPEIPKTITGSETNFLFFWETHGTKNYFISVAHPNLFIATKHDNWVCLAKGLPSITDFQILENQA
notes: also called cynomolgus macaque IL-1α
Q: How did the Ka [4] turn out when B3 was run?
A: The Ka was 1.4e+06 M⁻¹.

Q: Does B4 bind [5]?
A: Result: no binding
